We go through one molecule from patent US20050267025A1, “Compositions and methods for treatment of infectious and inflammatory diseases” (priority 2002, published 2005).

In the assay the test system is human monocytes. The assay is classed as cell-based.

B1: Rv0577: ~32 kDa IL-10 producing protein encoded by Rv0577 (cfp32), SEQ ID NO: 2 (protein, listed as Mycobacterium tuberculosis)
chain: MPKRSEYRQGTPNWVDLQTTDQSAAKKFYTSLFGWGYDDNPVPGGGGVYSMATLNGEAVAAIAPMPPGAPEGMPPIWNTYIAVDDVDAVVDKVVPGGGQVMMPAFDIGDAGRMSFITDPTGAAVGLWQANRHIGATLVNETGTLIWNELLTDKPDLALAFYEAVVGLTHSSMEIAAGQNYRVLKAGDAEVGGCMEPPMPGVPNHWHVYFAVDDADATAAKAAAAGGQVIAEPADIPSVGRFAVLSDPQGAIFSVLKPAPQQ
As for B1, the “IL-10 inducing activity of Mtb attributed to Rv0577” value is ~60%.
